# US7947807B2, “Method for obtaining G protein-coupled receptor (GPCR) diffraction-quality crystals employing a monoclonal antibody that binds to the third intracellular loop (IL3)” (The Board of Trustees of the Leland Stanford Junior …, priority 2007, dated 2011)
# Entries after “also recorded” stand apart in the source; their conditions may differ. Where two headings read alike, the source gives them in different places.
# B1: antibody 5: mouse monoclonal antibody binding a three dimensional epitope on the third intracellular loop of β2AR (protein)
# light: DIKMTQSPSSMYASLGERVTITCKASQDINSYLSWFQQKPGKSPKTLIYRANRLVDGVPSRFIGTGSGQDYSLTISSLDYEDMGIYYCLQYDEFPYTFGGGTKLEIKRADAAPTVSIFPPSSEQLTSGGASVVCFLNNFYPKDINVKWKIDGSERQNGVLNSWTDQDSKDSTYSMSSTLTLTKDEYERHNSYTCEATHKTSTSPIVKSFNRNEC
# heavy: EVQLQQSGAELARPGASVKLSCKASGYIFTDYYINWVRQRTGQGFEWIGEIYPGSGNIDYNERFKDKATLTADKSSSTAYMQLSSLTSEDSAVYFCVRGFGYWGQGTTLTVSSAKTTPPSVYPLAPGSAAQTNSMVTLGCLVKGYFPEPVTVTWNSGSLSSGVHTFPAVLQSDLYTLSSSVTVPSSTWPSETVTCNVAHPASSTKVDKKIVPRDCGC
# B2: Fab 5: Fab fragment of antibody 5 generated by papain cleavage; light chain SEQ ID NO: 1, heavy chain SEQ ID NO: 2 (antibody)
# heavy: B1 heavy
# light: B1 light
# modifications: mus musculis; UNSURE (0)...(0) Fab 5 Heavy chain; UNSURE (0)...(0) Fab5 light chain
# Columns and labels:
# [1] = target: T1, β2AR (Homo sapiens, UniProt P07550); experiment: Saturation and competition binding assays on purified β2AR reconstituted in phospholipid vesicles, with and without prebound Fab 5; details: saturation binding, read-out: [3H]dihydroalprenolol Kd ± S.E.
# T1 construct: hexahistidine (C); made in house; host or cells: Sf9 insect cells
# Procedure: The effect of Fab binding on ligand binding properties and on agonist-induced three dimensional changes was determined.
# [2] = target: T2, flag tagged β2AR stably expressed in HEK-293 cells (Homo sapiens, UniProt P07550); experiment: Immunofluorescence staining of HEK-293 cells stably expressing flag tagged β2AR, nonpermeabilized or permeabilized; type: cell-based; details: compared with M1 antibody
# T2 construct: expressed in transfected cells
# Procedure: HEK-293 cells stably expressing a flag tagged version of the β2AR were cultured on coverslips and processed for immunocytochemistry. After fixation, with 4% paraformaldehyde, the cells were washed and blocked with 2.5% goat serum in PBS alone (nonpermeabilized) or with 0.5% NP-40 in PBS (permeabilized). The cells were incubated with the β2AR specific antibody indicated on the left side of the figure. After several washes, the β2AR monoclonal antibodies were detected with a Texas Red conjugated anti-mouse secondary antibody. […] The images shown are representative of at least 3 experiments. All images were acquired using an Axioplan 2 microscope (Carl Zeiss MicroImaging), fitted with a camera (RTE/CCD-1300-Y/HS; Roper Scientific) controlled using IPLab software (BD Bioscience).
# The antibodies were characterized as binding the intracellular or extracellular surface of the receptor in immunofluorescence experiments with HEK-293 cells stably expressing an N-terminally FLAG-tagged version of the β2AR. Antibodies that recognize an intracellular epitope only stain permeabilized cells.
# [3] = target: T3, denatured β2AR (Homo sapiens, UniProt P07550); experiment: Dot-blot binding of antibodies to SDS-denatured β2AR; details: β2AR denatured with SDS, spotted on nitrocellulose
# T3 construct: hexahistidine (C); made in house; host or cells: Sf9 insect cells
# Procedure: (§1) FIGS. 2A and 2B. Binding characteristics of β2AR-specific antibodies. 2A, Dot-blots showing binding of nine β2AR specific antibodies to denatured receptor. Equal amounts of β2AR denatured with SDS and β-mercaptoethanol were spotted in triplicate on nitrocellulose strips. The strips were blocked with 5% non-fat dry milk in PBS-Tween (0.05% Tween-20) and then probed with […] of the indicated antibodies diluted in blocking buffer. Binding of the primary antibody to the denatured β2AR was detected with an Alexa-688 labeled anti-mouse secondary antibody. The top panel is a graphical representation of the average dot intensity from three independent experiments. The lower panel is a representative experiment. The binding of all 9 antibodies to denatured β2AR is reduced compared to M1 binding to the linear Flag epitope. 2B, Dose-response curves showing the effect on increasing amounts of antibodies 4-9 on the fluorescence of β2AR labeled at C265 with tetramethylrhodamine (β2AR-TMR). β2AR-TMR was diluted to 4 nM in 500 μL of buffer consisting of 0.1% dodecylmaltoside, 100 mM sodium chloride, and 20 mM HEPES buffer (pH 7.5). Data represent an n of 3.
# Antibodies were screened for binding to a three dimensional epitope on the three-dimensional surface on the IC3 of the native β2AR, rather than a flexible linear epitope. […]
# [4] = target: T4, β2AR-TMR (Homo sapiens, UniProt P07550); experiment: Fluorescence of β2AR labeled at C265 with tetramethylrhodamine (β2AR-TMR), antibody dose-response; type: biochemical
# T4 construct: made in house
# Procedure: as §1, with “The binding of all 9 antibodies to denatured β2AR is reduced compared to M1 binding to the linear Flag epitope.” left out, “Data represent an n of 3.” left out
# To select for antibodies that may interact with IC3, we examined the effect of antibody binding on the fluorescence of β2AR labeled at C265 (at the cytoplasmic end of TM6) with tetramethylrhodamine. […] As such, antibodies binding to IC3 may stabilize a specific conformation of TM5 relative to TM6 that would be detected by a change in tetramethylrhodamine fluorescence.
# [5] = target: T5, β2AR (Homo sapiens, UniProt P07550, A271C/I135W); experiment: Bimane fluorescence assay of agonist-induced conformational change (β2AR labeled with monobromobimane at H271C); type: biochemical; details: 1 μM Fab5, 100 μM isoproterenol, 15 minutes
# T5 construct: made in house
# Description: (§2) FIGS. 3A and 3B. […] The fragmented β2AR was visualized using an Alexa-680 labeled M1 antibody against the N-terminal Flag epitope. […] The loop is marked with MW indicators corresponding to N-terminal fragments containing the Flag epitope. Residues sensitive to trypsin digest are shown in red. 3B, The change in the bimane fluorescence of β2AR labeled with monobromobimane at H271C at the cytoplasmic end of TM6. Bimane fluorescence is quenched by W135 at the cytoplasmic end of TM3 upon agonist binding^9. […] Fluorescence intensity was corrected for background fluorescence from buffer and ligands in all experiments. The data are the mean±S.E. of two independent experiments performed in triplicate.
# Purified receptor was reacted with 1:1 equivalent of monobromobimane (mBBr, Invitrogen) in buffer A (100 mM NaCl, 20 mM HEPES, pH 7.5, 0.1% dodecyl maltoside) and incubated overnight on ice in the dark. The fluorophore-labeled receptor was purified right before use by gel filtration on a desalting column equilibrated with buffer B. Fluorescence spectroscopy experiments were performed on a Spex FluoroMax-3 spectrofluorometer (Jobin Yvon Inc, NJ) with photon counting mode by using an excitation and emission bandpass of 4 nm. All experiments were performed at 25° C. For emission scans, excitation was set at 370 nm and emission was measured from 430-530 nm with an integration time of 1 s/nm. […]
# [6] = target: T1, β2AR; experiment: Limited tryptic digestion of purified β2AR with and without Fab 5, Western blot; type: biochemical; details: preincubated with Fab 5; M1 anti-FLAG Western blot
# Description: as §2
# Cleavage of purified β2AR with trypsin yielded two bands with molecular weights of approximately 27 and 29 kDa on a Western blot probed with the M1 anti-FLAG antibody (FIG. 3A). The sizes of these fragments indicate trypsin digestion at two of ten potential sites in IC3 (FIG. 3A).
# [7] = target: T1, β2AR; experiment: Coupling of purified β2AR to purified G protein; type: biochemical; details: data not shown
Molecule,Kd ([1]; β2AR without prebound Fab 5),Kd ([1]; β2AR-Fab5 (prebound Fab 5)),immunostaining on binding to native receptor in fixed cells [2],binding to denatured β2AR [3],"affinity for the β2AR (in words) ([4]; from β2AR-TMR dose-response curves, FIG. 2B)",fluorescence response of β2AR-TMR ([4]; β2AR labeled at C265 with tetramethylrhodamine),effect on agonist-induced bimane fluorescence change [5],protection of IC3 from trypsin cleavage [6],coupling of purified β2AR to purified G protein [7]
CCCc1ccccc1OCC(O)CNC(C)C (stereo not shown) [[^3H]dihydroalprenolol],1.02 ± 0.09 nM,1.08 ± 0.05 nM,,,,,,,
B1,,,comparable to M1,weakest binding to denatured protein; also recorded: bound weakly,highest affinity; also recorded: relatively high affinity,largest fluorescence response; also recorded: significantly greater than the response to antibody 9,not affected,,
B2,,,,,,,did not restrict the movement of transmembrane segments,the 27 kDa band disappears; also recorded: protects the N-terminal end of the loop,prevented coupling
